The values that follow come from US20260258115A1 (MAPP BIOPHARMACEUTICAL, published 2026).

Bounds are passed on as bounds.

The target in assay [1] is RSV postfusion F (postF), F deltaFP (respiratory syncytial virus, UniProt P03420 26-513). In words: BLI, IgG on sensor, 100 nM antigen. Background: Biolayer interferometry detects binding as a change in optical thickness at a sensor tip.
Assay [2] has as its target RSV prefusion F (preF), DS-Cav1 (respiratory syncytial virus, UniProt P03420 26-513). In words: BLI, IgG on sensor, 100 nM antigen.
Assay [3] deals with RSV fusion glycoprotein (RSV F) on RSV-A2 virus (respiratory syncytial virus, UniProt P03420 26-574). The assay is described as follows: cell-based or functional assay.
The target of assay [4] is RSV F on RSV subtype A virus (RSV-A2) (Respiratory Syncytial Virus, subtype A, …, UniProt P03420 26-574). In words: cell-based or functional assay.

B1: ADI-41448 (antibody, V domains shown)
VH: TVQLVESGAEVKSPGSSVRVSCQASGGSSNSYAISWVRQAPGQGLEWMGMISPLFGTTRFSQRFQGRVTITADKSTSTAYMELSSLNSEDTALYYCARGRFDFWSGPTRFYYTMDVWGQGTMVTVSS
VL: QSVLIQPASVSGSPGQSITISCSGTSSDIGGYNYVSWYQQHPGKAPKLLISDVTDRPSGISDRFSGSKSGTSASLTISGLQADDEADYYCTSYTTSSTWVFGGGTKLTVL
notes: IgG1
The Kd is the equilibrium constant for the complex coming apart. B1: the Kd in assay [1] was 0.428 nM; in assay [2], 2.75 nM. In assay [3], the “Neutralization IC50 (RSV subtype A)” value was > 25 µg/mL.

B2: ADI-41816 (antibody, V domains shown)
VH: QVQLVQSGAEVKKPGASVKVSCEASGYTFTDSYIHWVRQAPGQGLEWMGWINPNSGGTNYAQKFQGRVTMTRDTSTSTAFIELSRLRSDDTAVYYSARGVRQQWLVNTGDPDYYFDFWGQGTLVTVSS
VL: SYVLTQPPSVSVSPGQTASITCSGDKLGDKYSCWYQQKPGQSPVLVIYQDYKRPSGIPERFSGSNSGNTATLTISGTQAMDEADYYCQAWDRNAGVFGTGTKLTVL
Turning to B2, in assay [4], the “Neutralization IC50 (RSV subtype A)” value was found to be 0.91 µg/mL.

B3: ADI-41840 (antibody, V domains shown)
VH: QVQLVQSGAEVKKPGSSVKVSCKASGDTFSGYAIYWVRQAPGRGLELMGGIIPILGTSSYAQRFLGRTSFTADESTSTAYMDLSSLTSADTAMYYCARKRVTVPVPFDSWGQGTLVTVSS
VL: EIVMTQSPATLSVSPGERATLSCRASQSVSSNLAWYQQKLGQAPRLLIYGASTRATDIPARFSGSGSGTEFTLTISSLQSEDFVVYYCQQYNNWPWTFGQGTKVEIK
On to B3, for which the “Neutralization IC50 (RSV subtype A)” value in assay [4] was > 25 µg/mL.

B4: ADI-41834 (antibody, V domains shown)
VH: EVQLLESGGRLVQPGRSLRLSCAASGFTVSGSYMSWVRQAPGKGLEWVSVIYIDGGTKYADSVKGRFTISRDNSKNTVYLQMNSLRAEDTAVYYCARDSSLWYRGGDYWGQGTLVTVSS
VL: DIQMTQSPSSLSASVGDRVTITCQANHDISNYLNWYQQKPGKAPKLLIYDASILEAGVPSRFSGSGSGTHFTFTISSLQPEDIATYYCQQFDFRALTFGGGTKVEIK
With B4, in assay [4], the “Neutralization IC50 (RSV subtype A)” value was determined as 0.07 µg/mL.

B5: ADI-41445 (antibody, V domains shown)
VH: QVQLVQSGAEVKRPGSSVKVSCKAFGGSFSNYAINWVRQAPGQGLEWMGGISPVLGTAIYAKRFQGKVTITADKFANTAYMDLSSLRFEDTAVYYCARSPPHVEFPLTKWFDPWGQGTLVTVSS
VL: EIVMTQSPGTLSLSPGERATLSCRASQSVNSGYLAWYQHKPGRAPRLLIYGASNRATGVPDRFSGSGSGTDFTLTISRLEPEDFAVYYCQQYDNSLFTFGPGTKVDIK
notes: IgG1
Regarding B5, the Kd in assay [1] came to 0.772 nM; in assay [2] it was 3.04 nM. Moreover, the “Neutralization IC50 (RSV subtype A)” value in assay [3] is > 25 µg/mL.

B6: ADI-41451 (antibody, V domains shown)
VH: EVQLVESGGGLVQPGGSLRLSCAAAGFTFNNYEMHWVRQAPGKGLEWVSCVTSSGTATYYADSVKGRFTVSRDNAKKSLQLQMNSLRAEDTAVYYCARELYLGEDYYYGLDVWGQGTTVTVSS
VL: SYELTQPPSVSVSPGQTASISCSGDKLRNKHTCWYQHKSGQSPVLLIYQDNRRPSGIPDRLSGSKSGTTATLTISWTQAMDEAEYYCQAWDSNSAVIFGGGTKLTVL
notes: IgG1; also called Ab 735
As for B6, the Kd in assay [1] came to 1.67 nM; in assay [2], 1.82 nM. In assay [3], the “Neutralization IC50 (RSV subtype A)” value came out at 0.84 µg/mL.

B7: ADI-41453 (antibody, V domains shown)
VH: QVQLVQSGAEVRKPGASVKVSCKASGYTFSIYDMNWVRQAPGQGLEWMGWMNPNSGNTGYAQKFQGRVTMTGDTSISTAYMELSSLTSEDTAVYYCAVMYGDYPGYWGQGSLVTVSS
VL: SYELTQPLSVSVALGQTARITCGGNNIGSKSVHWYQQKPGQAPVLVIYRDAKRPSGIPERFSGSNSGNTATLTISGAQAGDEADYYCQVWDSNAWIFGGRTKLTVL
notes: IgG1; also called Ab 737
For B7, the results for the Kd in assay [1] and in assay [2] were 0.403 nM and 2.17 nM, respectively. The “Neutralization IC50 (RSV subtype A)” value in assay [3] is > 25 µg/mL.

B8: ADI-41446 (antibody, V domains shown)
VH: EVQLLESGGGLVQPGGSLRLSCAASGFTYYSYAMNWVRQAPGKGLEWVSAISGGGDNTFYAESVKGRFTISRDNAKNTLYLQMDSLRAEDTAVYYCAKDLQGYTSLYCFDYWGQGTLVTVSS
VL: EIVMTQSPATLSLSPGERAALSCRASQSVFNYVAWYQQKPGQAPRLLIYDTSKRATGIPARFSGSGSGTDFTLTISSLEPEDFAVYYCQHRYNWPGLIFGGGTKVEIK
notes: IgG1; also called Ab 730
For the molecule B8, the results for the Kd in assay [1] and in assay [2] were 0.722 nM and 3.6 nM, respectively. Further, in assay [3], the “Neutralization IC50 (RSV subtype A)” value is > 25 µg/mL.

B9: ADI-41829 (antibody, V domains shown)
VH: EVQLVESGGGLVKPGGSLRLSCAASGFTSSGYNMNWVRQAPGKGLEWVSSISGSSSYIHYADSVKGRFTISRDNAKNSLYLQMNSLRAEDTAVYYCATVGALPGHFDNWGQGTLVTVSS
VL: QAVVTQEPSVSGAPGQRVTISCTGSSSNIGAGYDVHWYQQLPGTAPKLLIYDNTNRPSGVPDRFSGSKSGTSASLAITGLQAEDEADYYCQSYDSRLTYVFGTGTKVTVL
B9: the “Neutralization IC50 (RSV subtype A)” value in assay [4] came out at 0.12 µg/mL.

B10: ADI-41831 (antibody, V domains shown)
VH: EVQLLESGGGLVKPGGSLRLSCAASGFTFSSYAMHWVRQPPGKGLEWVSSISASSSFINYADSVKGRFTISRDGARNSLYLQMNSLRAEDTAVYYCVREDYDSSGYGLHWFDPWGQGTTVTVSS
VL: SYVLTQPPSVSGAPGQRVTISCTGSSSNIGAGYDVHWYQQFPGTAPKLLMYGNTNRPSGVPDRFSGSKSGTSASLAITGLQAEDEADYYCQSYDRSLSGWVFGGGTKLTVL
For the molecule B10, the “Neutralization IC50 (RSV subtype A)” value in assay [4] was found to be 5.21 µg/mL.

B11: ADI-43640 (antibody, V domains shown)
VH: QVQLVQSGGGLVKPGGSLRLSCAASGFTFSSYSMNWVRQAPGKGLEWVSSISSSSSYIYYADSVKGRFTISRDNAKNSLYLQMNSLRAEDTAVYYCAREGRDGYNYNFDYWGQGTLVTVSS
VL: QSVVTQPPSVSGAPGQRVTISCTGSSSNIGAGYDVHWYQQLPGTAPKLLIYGNSNRPSGVPDRFSGSKSGTSASLAITGLQAEDEADYYCQSYDSSLSGVVFGGGTKLTVL
With B11, the “Neutralization IC50 (RSV subtype A)” value in assay [4] was > 25 µg/mL.

B12: ADI-41832 (antibody, V domains shown)
VH: EVQLVESGGGLVQPGGSLRLSCAASGFTFSKYAMNWVRQAPGKGLEWVSSISDSGDSRYYADSVKGRFTISRDSSKNTLNLQMNSLRAEDTAVYYCAKAGWELFSPQGAFDLWGQGTMVTVSS
VL: EIVMTQSPGTLSLSPGERATLSCRASQSVSSSHLAWYQQKPGQAPRLLIYGASSRDSGIPDRFSGSGSGTDFTLSISRLEPEDFAVYYCQHYGNSPYTFGQGTKVDIK
As to B12, the “Neutralization IC50 (RSV subtype A)” value in assay [4] is 0.19 µg/mL.

B13: ADI-41835 (antibody, V domains shown)
VH: EVQLLESGGGLVQPGGSLRLSCAASGFTFSSYAMNWVRQAPGKGLEWVSIISDSGGSTYYADSVKGRFTISRDNSKNTLYLQMNSLRAEDTAVYYCAKATPLKWELLIGSTPGYYFDYWGQGTTVTVSS
VL: SYELTQLPSVSVSPGQTASITCSGDKLGDKYACWYQQKPGQSPVVIMYQDNKRPSGIPERFSGSNSGNTATLTISGTQAMDEADYYCQAWDSSTGVFGGGTKVTVL
As for B13, the “Neutralization IC50 (RSV subtype A)” value in assay [4] is 0.45 µg/mL.

B14: ADI-41830 (antibody, V domains shown)
VH: QVQLVQSGPAVKKPGASVKVSCKASGYIFTSYGVSWVRQAPGQGLEWMGWISGYNGNTDYAQKFQGRVTLTVDSSTGTVYMDLRSLRSDDTAIYYCARAPPLPGQVYDGAGSYLLHGYWGQGTLVTVSS
VL: not shown
For the molecule B14, the “Neutralization IC50 (RSV subtype A)” value in assay [4] is 0.12 µg/mL.
